In general, pKd refers to the Kd on a negative log10 scale, so that one unit is a factor of ten.

For 1 substance, Kd results are on record in paper PMC7617670.

pKd: −log10 of the molar value. Where only a bound is given, the exact number is not on record here.

The test deals with PabA variant aY127A (Escherichia coli) (UniProt P00903). Nature of the test: ITC; 250 μM PabB titrated into 25 μM PabA in the cell; 25 °C; 50 mM Tris/HCl pH 7.5, 50 mM KCl, 5 mM MgCl2; without Cho and Gln; one set of sites. In general terms: Isothermal titration calorimetry measures the heat released or taken up as one component is titrated into another.

Consider “PabB, synthase subunit of aminodeoxychorismate synthase (ADCS) from Escherichia coli, wild type (from UniProt P05041 1-453) (enzyme)”, for which the negative-log Kd (pKd) was below 5.10.
